Measured values published in the nanobody polyreactivity screen of Harvey et al. (2022).

Assay: yeast display, Sf9 membrane polyspecificity reagent, FACS + sequencing; frameworks hold sequencing errors
Method in brief: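 Genes from sorted yeast were amplified by colony PCR, read by MiSeq 2 × 250 sequencing and filtered on CDR length. These cells carried a synthetic nanobody library in Saccharomyces cerevisiae BJ5465 and were sorted by FACS into low and high (top ~1%) gates on anti-HA and streptavidin fluorescence. Polyreactivity is labelled according to the gate of origin.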

Row | Sequence | polyreactivity (PSR sort gate)
1 | QVQLVESGGGLVQAGGSLRLSCAASGFIFVPYAMGWDRQAPGNERELVAAITWSGAATYYADSVQGRFTISRDNAKNTVYLQLNSLKPEDTAVYYCAAENWLPQTGGYYWYDSWGQGTQVTVSS | high polyreactivity
2 | QVQLVESGGGLVQAGGSLRLSCAASGRTLVLNMGWYRPAPGKERELVATINSGGSTYYADSVKGRFTISRDNAKNTVYLQMNSLKPEDTAVYYCAVLSSDGKFDYWGQGTQVTVSS | low polyreactivity
3 | QVQLVESGGGLVQAGGSLRLRGAASGFTFLYYAMGWYRQAPGKERELVAAITWSGDSTYYADSEKGRFTISRDYAMNTVYLQMNSLKPEDTAVYYCATGGVTFGSVVRGVDGDYWGQGTQVTVSS | low polyreactivity
4 | QVQLVESGGGLVQAGGSLRLSCAASGFTFVYYAMGWYRQAPGKERELVAAISRGGSTYYADSVKGRFTISRDNAKNTVYLQMNCLKPVDTAVYYCNAKKSGHYVSYPAYDYWGQGTQVTVSS | low polyreactivity
5 | QVQLVESGGGLVQAGGSLRLICAASGFTFHSYAMGWYRQAPGKERELVAAITTDGSTYYADSVKGRFTISRDNAKNTVYLQMTSLKPEDTAVYYCAAGKAYWYARKPYARYYYWGQGTQVTVSS | high polyreactivity
6 | QVQLVEAGGGLVKAGGSLRLSCAASGYIFRFYALGWYRQAPGKERELVAAISRSGSRTYYADSVKGRFTISRDNAKNTVYLQMNSLKPEDTAVYYCAAVTRGLRFDYWGQGTQVTVSS | high polyreactivity
7 | QVQLVESGGGLVQAGGSLRLSCAASGFIFAYNAMGWYRQAPGKERELVAAISWSGGSTYYADSVKGRFTISRDNAKNTVYLQMNSLKPEDTAVYYCNAFSYYGARYDYWGLGTQVTVSS | high polyreactivity
8 | QVQLVESGGGLVQAGGSLRLSCAASGRIFGRYAMGWYRQAPGKEREFVAAISWRGGTTYYADSVKGRFTISRDNAKNTVYLQMNSLKPEDTAVYYCNARYQTGGYGYWGQGTQVTVSS | high polyreactivity
9 | QVQLVESGGGLVQAGGSLRLSCAASGSIVPFYAMGWDRQAPGKERELVATISSGDSTHYADSVKGRFTISRDNAKNTVYLQMNSLKPEDTAVYYCNRRNKAQRFFELGYWGQGTQVTVSS | low polyreactivity
10 | QVQLVESGGGLVQAGGSLRLSCAASGSTIQSNGMVWYRQAPGKERELVAAITSTDASTSYADSVKGRFTISRDNAKNTVYLQMNSLKPEDTAVYYCAADFPVASGAELDYWGLGTQVTVSS | low polyreactivity
11 | QVQLVESGGGLVQAGGSLRLSCAASGSTFRIYAMGWYRQAPGKERELVATITSGSSTYADSVKGRFTISRDNAKNTVYLQMNSLKPEDTAVYYCAARRKGGHISYGYDYWGQGTQVTVSS | high polyreactivity
12 | QVQLVESGGGLVQAGGSLRLSCAASGSTLSGNAMGWYRQAPGKERELVAAIRWSGDITYYADSVKGRFTISRDNAKNTVYLQMNSLKPEDTAVYYCAATLGNRWFHYNYWGQGTQVTVSS | low polyreactivity
13 | QVQLVESGGGLVQAGGSLRLSCAASGRIFGSYVMGWYRQAPGKERELVAAISYSGGRTYYADSVKGRFTISRDNAKNTVYLQMNSLKPEDTAVYYCAKESSGSRYQYYYWGQGTQVTVSS | high polyreactivity
14 | QVQLEESGGGLVQAGGSLRLSCAASGSIFVYYAMGWYRQAPGKERELVAAISSSGTSTYYADSVKGRFTISRDNAKNTVYLQMNSLKPEDTAVYYCATTRRYAYRGGHNYWGQGTQVTVSS | high polyreactivity
15 | QVQLVESGGGLVQAGGSLRLSCAASGITLVGNAMGWYRQAPGKERELVADINWSDDSTYYADSVKGRFTISRDNAKNTVYLQMNSLKQEDTAVYYCAADVSWRLYNRSSEYDYWGQGTQVTVSS | low polyreactivity
16 | QVQLVESGGGLDQAGGSLRLSCAASGSIFYPYAMGWYRQAPGKERELVASNSSGGSTYYADSVKGRFTISRDNAKNTVYLQMNSLKPEDTAVYYCARQDYKRFYRYRFGNLYDSWGQGTQVTVSS | high polyreactivity
17 | QVQLVESGGGLVQAGGSLRLSCAASGSIFDRNAMGRYRQAPGKERELVAAITSGGSTYYADSVKGRFTISRDNAKNTVYFQMNSLKPEDTAVYYCNADTDPPVPLYYWGQGTQVNVSS | low polyreactivity
18 | RVQLVESGGGLVQAGGSLRLSCAASGRIFDNYVMGCYRQAPGKDRELLAAISSGGGTYYADSVKGRFTISRDNAMNTVYLQMNSLKPEDTAVYFCAKRRVYDRSFGRYDYWGQGTQVTGSS | low polyreactivity
19 | QVQLVESGGGLVQAGGSLRLSCAASGSIFFPYTMGWYRQAPGKERELVAAISERGGDTYYADSVKGRFTISRDNAKNTVYLQMNSLKPEDTAVYDCAAATSPISTSDYWGQGTQVTVSS | low polyreactivity
20 | QVQLVESVGGLVQAGGSLRLICAASGFIFWDYAMGSDRQAPGKERELVAAISDSGGDTYYAESVKGRFTISRDNAKNTVYLQMNSLKPEDTAVYFCAADLGRNYDYWGQGTQVTVLS | low polyreactivity
21 | QVQLVESGGGLVQAGGSLRLSCAASGFTYSFYTMGWSRQAPGKERELVAAISRNGGSTYYADSVKGRFTISRDNAKNTVYLQMNSLKPEDTAVYYCAARARGGDWGSGDYWGQGTQVTVSS | high polyreactivity
22 | QVQLVESGGGLVQAGGSLRLSCAASGFIFSRNVMGWYRQAPGKERELVAAISRSGGSTYYADSVKGRFTISRDNAKNTVYLQMNSLKTEYTAVYYCAASRINNVYLLKGDYWGQGTQVTVSS | high polyreactivity

Row | Sequence | polyreactivity (PSR sort gate)
23 | QVQLVDSGGGLVQAGGSLRLSCAASGRTFGVNTMGWYRQAPGKERELVAAISWSGGRTYYADSVKGRFTISRDNAKNTVYLQMNSLKPEDTAVYYCAASWYSRASLYDYWGQGTQVTVSS | high polyreactivity
24 | QVQLVESGGGLVQAGGSLRLSCAASGSTIRFNAMGWYRQAPRKERELVAAISWRGGTTYADSVKGRFTISRDNAKNTVFLQMTSLKPEDTAVYYCAAGLYAQGKRYGYWGHGTQVTVSS | high polyreactivity
25 | QVQLVESGGGLVQAGGSLRLSCAASGSIFPGNAMGWYRQAPGKERELVAAIDFSGGSTYYADSVKGRFTISRDNAKNTVYLQMNSLKPEDTAVYYCAASVYPYYGYGYWGQGTQVTVSS | low polyreactivity
26 | QVQLVESGGGLVQAGGSLRLSCAASGSSFRRNAMGWYRQAPGKERELVAAITRGGGSTYYADSVKGRFTISRDNAKNTVYLQMNSLKPEDTAVYYCAAQISATRETMDYWGQGTQVTVSS | high polyreactivity
27 | QVQLVESGGGLVQAGGSLRLSCAASGRIFWYYAMGGYRQAPGKERELVASITSGGRTKYADSVKGRFTISRDNAKNTVYLQMNSLKPEDTAVYYCAARLLIDYHADWWVAYDYWGQGTQVTVSS | low polyreactivity
28 | QVQLVESWGGLVQAGGSLRLSCAASGRILGDYAMGWYRQAPGKEREFVAAIDYNGGSTNYADSVKGRFTISRDNAKNTVFLQMNSLKPEDTAVYYCAAPGFPSRNGFGYWGQGNQVTVSS | low polyreactivity
29 | QVQLVESGGGLVQAGGSLRLSCAASGSTFSYYPMGWYREAPGQERELVAAISSRGSSTYYADSVKGRFTISRDNAKNTVYLQMNSLKPEDTAVYYCNAERVVYKWYDYWGQVTQVTVSS | high polyreactivity
30 | QVQLVESGGGLVQAGGSLRLSCAASGLTFLGNAMGWYRQAPGKERELVASITFSGDSTYYADSVKGRFTISRDNAKNSVYLQMNSVKPEDTAVYYCAADGSRLYYWPFEYDYWGQGTQVTVSS | low polyreactivity
31 | QVQLVESGGGLVQAGGSLRLSCAASGSTLGAYAMGWSRQAPGKERELVAAISRSGGNTYYADSVKGRFTISRDNAKNTVYLQMNSLKPDDTAVYYCAAVRLYRYDYWGQGTQVTVSS | low polyreactivity
32 | QVQLVESGGGLVQAGGSLRLSCAASGFIFDRNAMGWYRQAPGKERELVAAISKSGGSTYYADSVKGRFSISRDNAKNTVYLQMNSLKPEDTAVYYCAADRPTIRYNSWGQGTQVTVSS | high polyreactivity
33 | QVQLVESGGGLVQAGGSLRISCAASGFIFRYYAMGWYRQAPGKERELVARITNGGSTKYSDSVKGRFTISRDNAKTTVYLQMNSLKPEDTAVYYCNTDGLVRNGPFFSWGQGTQVTVSS | low polyreactivity
34 | QVQLVESGGGLVQAGGSLRLSCAASGSIFNGYAMGWYRQAPGKERELVADIRSGGSTYYADSVKGRFTISRDNAKYTVYLQMNSLKPEDTAVYYCAADTITDGYDYWGQGTQVTVSS | low polyreactivity
35 | QVQLVESGGGLVQAGGSLRLSCAASGRIFGYNAMGWYREAPGKERELVAAITGSGGSTYYADSVKGRFTISRDNAKNTVYLQMNSLKPEDTAVYYFATAYAVYHVEYGYWGQGTQVTVSS | low polyreactivity
36 | QVQLVESGGGLVQAGGSLRLSCAASGIIFAGNTMGWYIQAPWKERELVAAITWSGGSTYYADSVKGRFTISRDNAKNTVYLQMNSQKPEDTAVYYCAAYYGGYGWDDKYDYWGQGTQVTVSS | low polyreactivity
37 | QVQLVESGGGLVQAGGSLRLSCASSGRTFYSYAMGWYRQAPGKERELVAGITWSGTSTYYADSVKGRFTISRDNWKNTVYLQMYSLKPEDTAVYYCAAATLYSGYDYWGQGTQVSVSS | low polyreactivity
38 | QVQLVESGGGLVQAGGSLRLSCAASGSTFGVYARGWYRQAPGKERELVAAIRDRGGSTYYADSVKGRFTISRDNAKNTVYLQMNSLKPEDTAVYYCATRTWWEYYYWGQGTQVTVSS | high polyreactivity
39 | QVQLVESGGGLVQAGGSLRLTCAASGFTFGSYVMGWYRQAPGKERELVADISIRGGSTYYADSVKGRFTISRDNAKNTVYLQMHSLKPEDTAVYYCNADPAFYYWEGIVGGADYDYWGIGTQVTVSS | low polyreactivity
40 | QVQLVESGGGLVQAGGSLRLSCAASGSTFSIYAMGWYRQAPGKERELVAAISGSGSRTYYADSVKGRFTISRDNAKNTVYLQMNSLKPEDTAVYYCAARGRHRDGFDFNYWGQGTQVTVSS | high polyreactivity
41 | QVQLVESGGGLVQAGGSLRLSCAASGRTFIKNAMGWYRQAPGKERELVATISKRGGRTYYADSVKGRFTISRDNAKNTVYLQMNSLKPEDTAVYYCAARYRKSGLDKYWGQGTQVTVSS | high polyreactivity
42 | QVQLVESGGGLVQAGGTLRLSCAASGITFYLNAMGWYRQAPGKERELVADITVSGGSTYYAVSVKGRFTISRDNVKNTVYLQMNSLKPEDTAVYYCAAKYSSGRVLFEHGYWGQGTQVTVSS | low polyreactivity
43 | QVQLVESGGGLVQAGGSLRLSCAASGFTFNYYAMGWYRQAPGKERELVAAITSSGGSTYYADSVKGRFTISRDNAKNTVYLQMNSLKPEDTAVYYCNAAVYAHRYIYGFDYWGQGTQVTVSS | high polyreactivity
